Test results taken from US20200317792A1 (INSMED, published 2020).

Molecular target: T1, recombinant, soluble his tagged human EGFR (Sino Biologicals) (human, UniProt P00533 25-645)
T1 construct: extracellular domain; also called human epidermal growth factor receptor; not shown: his tag
Experiment: BLI (ForteBio Octet Red), IgG on protein A tips, 100 nM soluble EGFR;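 note: antibody binding to EGFR read out as on and off rates plus equilibrium affinity, calculated with the Octet instrument software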

| Binder | binding result |
| --- | --- |
| CoDAH design C1 VH/C4 Vκ (antibody, V domains shown, Cross pair; Measured as full length IgG) VH: QVQLQQSGPGLVKPSQTLSLTCTVSGFSLTNYGVHWVRQSPGKGLEWLGVIWSGGNTDYNTPFTSRLTISKDTSKNQVSLKLSSVTSNDTAVYYCARALTYYDYEFAYWGQGTLVTVSA VL: DIVLTQSPVILSVSPGERVTFSCRASQSIGTNIHWYQQKPDQSPKLLIKYASESISGVPSRFSGSGSGTDFTLTINSVESEDIADYYCQQNNNWPTTFGQGTKLELKR | binds |
| CoDAH design C4 VH/C1 Vκ (antibody, V domains shown, Cross pair; Measured as full length IgG) VH: QVQLQQSGPGLVKPSQTLSLTCTVSGFSLTNYGVHWVRQSPGKGLEWLGVIWSGGNTDYNTPFTSRLTISKDNSKSQVFFKMNSLQSNDTAVYYCARALTYYDYEFAYWGQGTLVTVSA VL: DIVLTQSPDFQSVTPKEKVTITCRASQSIGTNIHWYQQKPDQSPKLLIKYASESISGVPSRFSGSGSGTDFTLTINSVESEDIADYYCQQNNNWPTTFGAGTKLELKR | binds |
| CoDAH design C4 VH/C2 Vκ (antibody, V domains shown, Cross pair; Measured as full length IgG) VH: QVQLQQSGPGLVKPSQTLSLTCTVSGFSLTNYGVHWVRQSPGKGLEWLGVIWSGGNTDYNTPFTSRLTISKDNSKSQVFFKMNSLQSNDTAVYYCARALTYYDYEFAYWGQGTLVTVSA VL: DIVLTQSPVFLSVTPGEKVTITCRASQSIGTNIHWYQQKPDQSPKLLIKYASESISGVPSRFSGSGSGTDFTLTINSVESEDIADYYCQQNNNWPTTFGAGTKLELKR | binds |
| CoDAH design C1 VH/C5 Vκ (antibody, V domains shown, Cross pair; Measured as full length IgG) VH: QVQLQQSGPGLVKPSQTLSLTCTVSGFSLTNYGVHWVRQSPGKGLEWLGVIWSGGNTDYNTPFTSRLTISKDTSKNQVSLKLSSVTSNDTAVYYCARALTYYDYEFAYWGQGTLVTVSA VL: EIVLTQSPVILSVSPGERVTFSCRASQSIGTNIHWYQQKTDQSPRLLIKYASESISGIPSRFSGSGSGTDFTLTINSVESEDIADYYCQQNNNWPTTFGQGTKLELKR | binds |
| CoDAH design C3 VH/C3 Vκ (antibody, V domains shown, Pareto optimal design; Measured as full length IgG) VH: QVQLQQSGPGLVKPSETLSLTCTVSGFSLTNYGVHWVRQSPGKGLEWLGVIWSGGNTDYNTPFTSRLTISVDTSKNQVSLKLSSVTSNDTAVYYCARALTYYDYEFAYWGQGTLVTVSA VL: DILLTQSPVILSVSPGERVTFSCRASQSIGTNIHWYQQKPDQSPKLLIKYASESISGVPSRFSGSGSGTDFTLTINSVESEDIADYYCQQNNNWPTTFGAGTKLELKR | binds |
| CoDAH design C3 VH/C2 Vκ (antibody, V domains shown, Cross pair; Measured as full length IgG) VH: QVQLQQSGPGLVKPSETLSLTCTVSGFSLTNYGVHWVRQSPGKGLEWLGVIWSGGNTDYNTPFTSRLTISVDTSKNQVSLKLSSVTSNDTAVYYCARALTYYDYEFAYWGQGTLVTVSA VL: DIVLTQSPVFLSVTPGEKVTITCRASQSIGTNIHWYQQKPDQSPKLLIKYASESISGVPSRFSGSGSGTDFTLTINSVESEDIADYYCQQNNNWPTTFGAGTKLELKR | binds |
| CoDAH design C2 VH/C4 Vκ (antibody, V domains shown, Cross pair; Measured as full length IgG) VH: QVQLQQSGPGLVKPSQTLSLTCTVSGFSLTNYGVHWVRQSPGKGLEWLGVIWSGGNTDYNTPFTSRLTISVDTSKNQVSLKLSSVTSNDTAVYYCARALTYYDYEFAYWGQGTLVTVSA VL: DIVLTQSPVILSVSPGERVTFSCRASQSIGTNIHWYQQKPDQSPKLLIKYASESISGVPSRFSGSGSGTDFTLTINSVESEDIADYYCQQNNNWPTTFGQGTKLELKR | binds |
| CoDAH design C2 VH/C1 Vκ (antibody, V domains shown, Cross pair; Measured as full length IgG) VH: QVQLQQSGPGLVKPSQTLSLTCTVSGFSLTNYGVHWVRQSPGKGLEWLGVIWSGGNTDYNTPFTSRLTISVDTSKNQVSLKLSSVTSNDTAVYYCARALTYYDYEFAYWGQGTLVTVSA VL: DIVLTQSPDFQSVTPKEKVTITCRASQSIGTNIHWYQQKPDQSPKLLIKYASESISGVPSRFSGSGSGTDFTLTINSVESEDIADYYCQQNNNWPTTFGAGTKLELKR | binds |
| CoDAH design C3 VH/C4 Vκ (antibody, V domains shown, Cross pair; Measured as full length IgG) VH: QVQLQQSGPGLVKPSETLSLTCTVSGFSLTNYGVHWVRQSPGKGLEWLGVIWSGGNTDYNTPFTSRLTISVDTSKNQVSLKLSSVTSNDTAVYYCARALTYYDYEFAYWGQGTLVTVSA VL: DIVLTQSPVILSVSPGERVTFSCRASQSIGTNIHWYQQKPDQSPKLLIKYASESISGVPSRFSGSGSGTDFTLTINSVESEDIADYYCQQNNNWPTTFGQGTKLELKR | binds |
| CoDAH design C5 VH/C4 Vκ (antibody, V domains shown, Cross pair; Measured as full length IgG) VH: QVQLQQSGPGLVKPSETLSITCTVSGFSLTNYGVHWVRQSPGKGLEWLGVIWSGGNTDYNTPFTSRLTINKDNSKSQVFFKMNSLQSNDTAVYYCARALTYYDYEFAYWGQGTLVTVSA VL: DIVLTQSPVILSVSPGERVTFSCRASQSIGTNIHWYQQKPDQSPKLLIKYASESISGVPSRFSGSGSGTDFTLTINSVESEDIADYYCQQNNNWPTTFGQGTKLELKR | binds |
| CoDAH design C4 VH/C4 Vκ (antibody, V domains shown, Pareto optimal design; Measured as full length IgG) VH: QVQLQQSGPGLVKPSQTLSLTCTVSGFSLTNYGVHWVRQSPGKGLEWLGVIWSGGNTDYNTPFTSRLTISKDNSKSQVFFKMNSLQSNDTAVYYCARALTYYDYEFAYWGQGTLVTVSA VL: DIVLTQSPVILSVSPGERVTFSCRASQSIGTNIHWYQQKPDQSPKLLIKYASESISGVPSRFSGSGSGTDFTLTINSVESEDIADYYCQQNNNWPTTFGQGTKLELKR | binds |
| CoDAH design C1 VH/C1 Vκ (antibody, V domains shown, Pareto optimal design; Measured as full length IgG) VH: QVQLQQSGPGLVKPSQTLSLTCTVSGFSLTNYGVHWVRQSPGKGLEWLGVIWSGGNTDYNTPFTSRLTISKDTSKNQVSLKLSSVTSNDTAVYYCARALTYYDYEFAYWGQGTLVTVSA VL: DIVLTQSPDFQSVTPKEKVTITCRASQSIGTNIHWYQQKPDQSPKLLIKYASESISGVPSRFSGSGSGTDFTLTINSVESEDIADYYCQQNNNWPTTFGAGTKLELKR | binds |
| CoDAH design C4 VH/C3 Vκ (antibody, V domains shown, Cross pair; Measured as full length IgG) VH: QVQLQQSGPGLVKPSQTLSLTCTVSGFSLTNYGVHWVRQSPGKGLEWLGVIWSGGNTDYNTPFTSRLTISKDNSKSQVFFKMNSLQSNDTAVYYCARALTYYDYEFAYWGQGTLVTVSA VL: DILLTQSPVILSVSPGERVTFSCRASQSIGTNIHWYQQKPDQSPKLLIKYASESISGVPSRFSGSGSGTDFTLTINSVESEDIADYYCQQNNNWPTTFGAGTKLELKR | binds |
| CoDAH design C2 VH/C3 Vκ (antibody, V domains shown, Cross pair; Measured as full length IgG; also called C3 Vκ/C2 VH) VH: QVQLQQSGPGLVKPSQTLSLTCTVSGFSLTNYGVHWVRQSPGKGLEWLGVIWSGGNTDYNTPFTSRLTISVDTSKNQVSLKLSSVTSNDTAVYYCARALTYYDYEFAYWGQGTLVTVSA VL: DILLTQSPVILSVSPGERVTFSCRASQSIGTNIHWYQQKPDQSPKLLIKYASESISGVPSRFSGSGSGTDFTLTINSVESEDIADYYCQQNNNWPTTFGAGTKLELKR | binds |

More lines, now with the values ahead:

| binding result | Binder |
| --- | --- |
| binds | CoDAH design C3 VH/C5 Vκ (antibody, V domains shown, Cross pair; Measured as full length IgG) VH: QVQLQQSGPGLVKPSETLSLTCTVSGFSLTNYGVHWVRQSPGKGLEWLGVIWSGGNTDYNTPFTSRLTISVDTSKNQVSLKLSSVTSNDTAVYYCARALTYYDYEFAYWGQGTLVTVSA VL: EIVLTQSPVILSVSPGERVTFSCRASQSIGTNIHWYQQKTDQSPRLLIKYASESISGIPSRFSGSGSGTDFTLTINSVESEDIADYYCQQNNNWPTTFGQGTKLELKR |
| binds | CoDAH design C3 VH/C1 Vκ (antibody, V domains shown, Cross pair; Measured as full length IgG) VH: QVQLQQSGPGLVKPSETLSLTCTVSGFSLTNYGVHWVRQSPGKGLEWLGVIWSGGNTDYNTPFTSRLTISVDTSKNQVSLKLSSVTSNDTAVYYCARALTYYDYEFAYWGQGTLVTVSA VL: DIVLTQSPDFQSVTPKEKVTITCRASQSIGTNIHWYQQKPDQSPKLLIKYASESISGVPSRFSGSGSGTDFTLTINSVESEDIADYYCQQNNNWPTTFGAGTKLELKR |
| binds | CoDAH design C2 VH/C2 Vκ (antibody, V domains shown, Pareto optimal design; Measured as full length IgG) VH: QVQLQQSGPGLVKPSQTLSLTCTVSGFSLTNYGVHWVRQSPGKGLEWLGVIWSGGNTDYNTPFTSRLTISVDTSKNQVSLKLSSVTSNDTAVYYCARALTYYDYEFAYWGQGTLVTVSA VL: DIVLTQSPVFLSVTPGEKVTITCRASQSIGTNIHWYQQKPDQSPKLLIKYASESISGVPSRFSGSGSGTDFTLTINSVESEDIADYYCQQNNNWPTTFGAGTKLELKR |
| binds | CoDAH design C1 VH/C2 Vκ (antibody, V domains shown, Cross pair; Measured as full length IgG) VH: QVQLQQSGPGLVKPSQTLSLTCTVSGFSLTNYGVHWVRQSPGKGLEWLGVIWSGGNTDYNTPFTSRLTISKDTSKNQVSLKLSSVTSNDTAVYYCARALTYYDYEFAYWGQGTLVTVSA VL: DIVLTQSPVFLSVTPGEKVTITCRASQSIGTNIHWYQQKPDQSPKLLIKYASESISGVPSRFSGSGSGTDFTLTINSVESEDIADYYCQQNNNWPTTFGAGTKLELKR |
| binds | CoDAH design C2 VH/C5 Vκ (antibody, V domains shown, Cross pair; Measured as full length IgG) VH: QVQLQQSGPGLVKPSQTLSLTCTVSGFSLTNYGVHWVRQSPGKGLEWLGVIWSGGNTDYNTPFTSRLTISVDTSKNQVSLKLSSVTSNDTAVYYCARALTYYDYEFAYWGQGTLVTVSA VL: EIVLTQSPVILSVSPGERVTFSCRASQSIGTNIHWYQQKTDQSPRLLIKYASESISGIPSRFSGSGSGTDFTLTINSVESEDIADYYCQQNNNWPTTFGQGTKLELKR |
| binds | CoDAH design C1 VH/C3 Vκ (antibody, V domains shown, Cross pair; Measured as full length IgG) VH: QVQLQQSGPGLVKPSQTLSLTCTVSGFSLTNYGVHWVRQSPGKGLEWLGVIWSGGNTDYNTPFTSRLTISKDTSKNQVSLKLSSVTSNDTAVYYCARALTYYDYEFAYWGQGTLVTVSA VL: DILLTQSPVILSVSPGERVTFSCRASQSIGTNIHWYQQKPDQSPKLLIKYASESISGVPSRFSGSGSGTDFTLTINSVESEDIADYYCQQNNNWPTTFGAGTKLELKR |
| binds | CoDAH design C4 VH/C5 Vκ (antibody, V domains shown, Cross pair; Measured as full length IgG) VH: QVQLQQSGPGLVKPSQTLSLTCTVSGFSLTNYGVHWVRQSPGKGLEWLGVIWSGGNTDYNTPFTSRLTISKDNSKSQVFFKMNSLQSNDTAVYYCARALTYYDYEFAYWGQGTLVTVSA VL: EIVLTQSPVILSVSPGERVTFSCRASQSIGTNIHWYQQKTDQSPRLLIKYASESISGIPSRFSGSGSGTDFTLTINSVESEDIADYYCQQNNNWPTTFGQGTKLELKR |
